Assay results as given in PMC5589196 (Cell, 2016).

T1: Tfg1 (S. cerevisiae, UniProt P41895 1-735)
T1 sequence (looked up): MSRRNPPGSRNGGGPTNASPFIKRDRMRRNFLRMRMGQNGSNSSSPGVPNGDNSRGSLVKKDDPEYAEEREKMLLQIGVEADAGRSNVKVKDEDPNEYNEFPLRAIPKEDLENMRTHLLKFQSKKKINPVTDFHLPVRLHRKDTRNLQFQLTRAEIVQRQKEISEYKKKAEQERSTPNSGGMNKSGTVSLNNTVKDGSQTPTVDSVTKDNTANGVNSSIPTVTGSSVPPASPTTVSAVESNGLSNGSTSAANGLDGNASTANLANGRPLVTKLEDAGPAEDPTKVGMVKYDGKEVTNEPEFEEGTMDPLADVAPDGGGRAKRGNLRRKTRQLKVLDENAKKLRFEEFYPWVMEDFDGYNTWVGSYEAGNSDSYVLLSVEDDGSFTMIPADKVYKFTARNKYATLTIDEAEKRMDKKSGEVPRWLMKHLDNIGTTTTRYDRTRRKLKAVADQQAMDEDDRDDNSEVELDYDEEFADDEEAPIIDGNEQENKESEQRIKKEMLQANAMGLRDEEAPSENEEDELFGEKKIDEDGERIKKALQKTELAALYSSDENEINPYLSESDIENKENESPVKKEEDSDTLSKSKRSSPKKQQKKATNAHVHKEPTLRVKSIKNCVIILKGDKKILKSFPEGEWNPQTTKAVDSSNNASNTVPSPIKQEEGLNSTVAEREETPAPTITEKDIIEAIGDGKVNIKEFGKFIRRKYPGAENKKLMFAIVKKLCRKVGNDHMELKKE

T2: TFIIF (S. cerevisiae, UniProt P41895 1-735; P41896 1-400; P35189 1-244)
T2 sequence (looked up) 1: T1 sequence (looked up)
T2 sequence (looked up) 2: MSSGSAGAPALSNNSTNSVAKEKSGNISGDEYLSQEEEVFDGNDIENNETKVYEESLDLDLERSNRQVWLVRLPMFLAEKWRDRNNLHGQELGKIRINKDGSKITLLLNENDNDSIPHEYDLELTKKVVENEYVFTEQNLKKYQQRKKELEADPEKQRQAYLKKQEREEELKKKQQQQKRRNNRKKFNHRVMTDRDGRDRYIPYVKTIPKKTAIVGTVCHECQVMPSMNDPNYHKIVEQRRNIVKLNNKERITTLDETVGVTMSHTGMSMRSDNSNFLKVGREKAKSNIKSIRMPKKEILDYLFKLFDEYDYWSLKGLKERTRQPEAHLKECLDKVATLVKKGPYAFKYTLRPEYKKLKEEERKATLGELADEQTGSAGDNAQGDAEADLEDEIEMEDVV
T2 sequence (looked up) 3: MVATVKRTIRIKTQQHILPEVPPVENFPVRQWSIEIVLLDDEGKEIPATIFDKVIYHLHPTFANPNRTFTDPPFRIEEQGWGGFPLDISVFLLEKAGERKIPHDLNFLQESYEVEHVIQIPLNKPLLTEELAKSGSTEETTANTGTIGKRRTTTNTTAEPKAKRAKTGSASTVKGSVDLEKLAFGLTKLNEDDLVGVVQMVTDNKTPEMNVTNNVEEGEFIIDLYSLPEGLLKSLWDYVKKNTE

T3: Rad3 (S. cerevisiae, UniProt P06839 1-778)
T3 sequence (looked up): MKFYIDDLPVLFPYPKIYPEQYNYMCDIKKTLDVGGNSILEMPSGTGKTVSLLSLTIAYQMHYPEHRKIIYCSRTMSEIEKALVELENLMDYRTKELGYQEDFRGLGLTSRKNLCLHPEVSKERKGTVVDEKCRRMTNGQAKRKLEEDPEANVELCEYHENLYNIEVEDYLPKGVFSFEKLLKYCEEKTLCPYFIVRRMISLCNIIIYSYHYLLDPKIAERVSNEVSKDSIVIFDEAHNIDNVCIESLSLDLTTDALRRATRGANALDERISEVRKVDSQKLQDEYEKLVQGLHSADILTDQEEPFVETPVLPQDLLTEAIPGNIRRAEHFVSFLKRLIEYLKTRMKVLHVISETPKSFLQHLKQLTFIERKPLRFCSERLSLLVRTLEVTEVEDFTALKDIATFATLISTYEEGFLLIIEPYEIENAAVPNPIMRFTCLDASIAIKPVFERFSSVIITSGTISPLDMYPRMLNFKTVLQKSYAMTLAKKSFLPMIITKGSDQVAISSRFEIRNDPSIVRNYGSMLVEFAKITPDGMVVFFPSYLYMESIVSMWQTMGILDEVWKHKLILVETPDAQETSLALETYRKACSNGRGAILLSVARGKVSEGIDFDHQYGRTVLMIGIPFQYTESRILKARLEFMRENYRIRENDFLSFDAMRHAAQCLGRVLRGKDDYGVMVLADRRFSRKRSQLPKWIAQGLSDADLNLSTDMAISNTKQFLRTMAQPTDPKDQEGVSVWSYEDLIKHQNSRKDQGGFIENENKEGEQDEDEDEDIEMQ

T4: Med5 (S. cerevisiae, UniProt P53114 1-1132)
T4 sequence (looked up): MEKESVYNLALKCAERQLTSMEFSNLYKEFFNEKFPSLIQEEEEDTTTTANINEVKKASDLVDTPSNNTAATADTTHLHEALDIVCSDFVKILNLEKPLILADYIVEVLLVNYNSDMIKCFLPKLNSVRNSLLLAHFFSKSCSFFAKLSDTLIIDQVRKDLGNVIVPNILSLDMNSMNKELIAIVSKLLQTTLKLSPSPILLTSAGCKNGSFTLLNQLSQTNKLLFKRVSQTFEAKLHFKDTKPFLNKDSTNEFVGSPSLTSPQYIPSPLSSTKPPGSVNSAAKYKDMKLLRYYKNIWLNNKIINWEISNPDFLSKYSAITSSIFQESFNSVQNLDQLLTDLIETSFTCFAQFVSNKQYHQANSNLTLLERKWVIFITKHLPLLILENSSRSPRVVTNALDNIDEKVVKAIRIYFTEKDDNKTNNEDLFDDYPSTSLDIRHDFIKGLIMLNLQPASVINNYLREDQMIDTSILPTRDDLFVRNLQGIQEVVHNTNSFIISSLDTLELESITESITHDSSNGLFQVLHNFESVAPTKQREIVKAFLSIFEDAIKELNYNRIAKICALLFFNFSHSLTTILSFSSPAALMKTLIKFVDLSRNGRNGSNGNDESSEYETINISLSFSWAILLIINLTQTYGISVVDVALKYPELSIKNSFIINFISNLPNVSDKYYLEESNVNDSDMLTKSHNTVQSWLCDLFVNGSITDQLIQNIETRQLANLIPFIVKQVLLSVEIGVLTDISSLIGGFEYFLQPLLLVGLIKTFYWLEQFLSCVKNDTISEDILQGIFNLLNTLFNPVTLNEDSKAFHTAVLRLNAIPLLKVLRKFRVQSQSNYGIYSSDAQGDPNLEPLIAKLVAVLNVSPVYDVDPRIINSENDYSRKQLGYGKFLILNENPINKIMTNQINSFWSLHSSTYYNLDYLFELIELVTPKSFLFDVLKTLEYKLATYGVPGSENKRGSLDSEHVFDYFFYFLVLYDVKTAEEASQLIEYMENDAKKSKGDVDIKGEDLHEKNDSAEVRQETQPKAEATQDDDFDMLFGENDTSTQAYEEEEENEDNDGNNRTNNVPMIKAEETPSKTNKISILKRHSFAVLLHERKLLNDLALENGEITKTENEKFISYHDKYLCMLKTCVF

B1: Tfg3 (natural protein, S. cerevisiae, UniProt P35189 1-244, looked up)
chain: T2 sequence (looked up) 3
B2: TFIIE (complex, S. cerevisiae)
chain 1: MDRPIDDIVKNLLKFVVRGFYGGSFVLVLDAILFHSVLAEDDLKQLLSINKTELGPLIARLRSDRLISIHKQREYPPNSKSVERVYYYVKYPHAIDAIKWKVHQVVQRLKDDLDKNSEPNGYMCPICLTKYTQLEAVQLLNFDRTEFLCSLCDEPLVEDDSGKKNKEKQDKLNRLMDQIQPIIDSLKKIDDSRIEENTFEIALARLIPPQNQSHAAYTYNPKKGSTMFRPGDSAPLPNLMGTALGNDSSRRAGANSQATLHINITTASDEVAQRELQERQAEEKRKQNAVPEWHKQSTIGKTALGRLDNEEEFDPVVTASAMDSINPDNEPAQETSYQNNRTLTEQEMEERENEKTLNDYYAALAKKQAKLNKEEEEEEEEEEDEEEEEEEEMEDVMDDNDETARENALEDEFEDVTDTAGTAKTESNTSNDVKQESINDKTEDAVNATATASGPSANAKPNDGDDDDDDDDDEMDIEFEDV
chain 2: MSKNRDPLLANLNAFKSKVKSAPVIAPAKVGQKKTNDTVITIDGNTRKRTASERAQENTLNSAKNPVLVDIKKEAGSNSSNAISLDDDDDDEDFGSSPSKKVRPGSIAAAALQANQTDISKSHDSSKLLWATEYIQKKGKPVLVNELLDYLSMKKDDKVIELLKKLDRIEFDPKKGTFKYLSTYDVHSPSELLKLLRSQVTFKGISCKDLKDGWPQCDETINQLEEDSKILVLRTKKDKTPRYVWYNSGGNLKCIDEEFVKMWENVQLPQFAELPRKLQDLGLKPASVDPATIKRQTKRVEVKKKRQRKGKITNTHMTGILKDYSHRV
B3: Tfb3 (natural protein, S. cerevisiae, UniProt Q03290 1-321, looked up)
chain: MLMDEYEENKDMCPICKTDRYLSPDVKFLVNPECYHRICESCVDRIFSLGPAQCPYKGCDKILRKNKFKTQIFDDVEVEKEVDIRKRVFNVFNKTIDDFNGDLVEYNKYLEEVEDIIYKLDHGIDVAKTEEKLRTYEELNKQLIMNNLERSRTEIESFEQRQKFEKEMKLKKRLLERQIEEEERMNKEWTKKEIVNRLSTTTQDINETIEGVKNTVKLKKSSARRKLEELNRVLKNNPYFNSNVNVQNSRLKDAVPFTPFNGDREAHPRFTLKGSVYNDPFIKDLEHRKEFIASGFNTNYAYERVLTEAFMGLGCVISEEL
B4: Med1 (natural protein, S. cerevisiae, UniProt Q12321 1-566, looked up)
chain: MVEGDSYVETLDSMIELFKDYKPGSITLENITRLCQTLGLESFTEELSNELSRLSTASKIIVIDVDYNKKQDRIQDVKLVLASNFDNFDYFNQRDGEHEKSNILLNSLTKYPDLKAFHNNLKFLYLLDAYSHIESDSTSHNNGSSDKSLDSSNASFNNQGKLDLFKYFTELSHYIRQCFQDNCCDFKVRTNLNDKFGIYILTQGINGKEVPLAKIYLEENKSDSQYRFYEYIYSQETKSWINESAENFSNGISLVMEIVANAKESNYTDLIWFPEDFISPELIIDKVTCSSNSSSSPPIIDLFSNNNYNSRIQLMNDFTTKLINIKKFDISNDNLDLISEILKWVQWSRIVLQNVFKLVSTPSSNSNSSELEPDYQAPFSTSTKDKNSSTSNTEPIPRSNRHGSVVEASRRRRSSTNKSKRPSITEAMMLKEEGLQQFNLHEILSEPAIEEENGDSIKEHSTTMDGANDLGFTASVSNQENAGTDIVMEDHGVLQGTSQNYGTATADDADIEMKDVSSKPSKPESSVLQLIVSEDHIILDTISECNLYDDVKCWSKFIEKFQDIVS
B5: Rpb9 (natural protein, S. cerevisiae, UniProt P27999 1-122, looked up)
chain: MTTFRFCRDCNNMLYPREDKENNRLLFECRTCSYVEEAGSPLVYRHELITNIGETAGVVQDIGSDPTLPRSDRECPKCHSRENVFFQSQQRRKDTSMVLFFVCLSCSHIFTSDQKNKRTQFS

What was measured:
Tfg1 = target: T1, Tfg1; experiment: cross-linking + cryo-EM structure
TFIIF = target: T2, TFIIF; experiment: cross-linking
Rad3 = target: T3, Rad3; experiment: cross-linking
Med5 = target: T4, Med5; experiment: cross-linking
Tfg3 = target: B1; experiment: cross-linking + cryo-EM structure

Binder: B1
binding result (Tfg1): binds

Binder: B2
binding result (TFIIF): binds

Binder: B3
binding result (Rad3): binds

Binder: B4
binding result (Med5): binds

Binder: B5
binding result (Tfg3): binds
